Reference: patent US20230126400A1
Each block holds one binder with its values, some of them ahead of it.

Legend:
Conditions in all cases: remark: other sources report otherwise
[1] = target: human MS4A4A (human), Q96JQ5; assay: flow cytometry (anti-mouse IgG Fc-APC) on 300.19 cells transfected with human MS4A4A (Plate D); untransfected 300.19 cells (Plate C): mean 122
[2] = target: human MS4A4A (human), Q96JQ5; assay: flow cytometry (anti-mouse IgG Fc-APC) on U937 cells transfected with human MS4A4A (Plate B); untransfected U937 cells (Plate A): mean 313
[3] = target: human MS4A4A (human), Q96JQ5; assay: functional affinity, FACS titration on stably transfected 300.19 cells

Mean : APC-A [1]: 3600
Mean : APC-A [2]: 7370
Kd [3]: 14 nM
B1: anti-MS4A4A antibody 4A-21 (murine) (antibody, IgG1, V domains shown)
VH: QIQLVQSGPELKKPGETVKISCKASGYIFTSYGLSWVKQTPGKGLKWMGWINTYSGVPTYANDFKGRFAFSLETSASTTYLRINNLKNDDTATYFCARSLVDYWGQGTPLTVSS
VL: not shown

Kd [3]: 8.7 nM
B2: anti-MS4A4A antibody 4A-21, huIgG1 chimera (antibody, V domains shown)
VH: B1 VH
VL: not shown
